Assay results as given in the nanobody polyreactivity screen of Harvey et al. (2022).

Assay: yeast display, Sf9 membrane polyspecificity reagent, FACS + sequencing; frameworks hold sequencing errors
Outline: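 Polyreactivity labels are assigned by the sorting gate from which each nanobody was recovered. The gates were low and high (top ~1%), set on anti-HA fluorescence for expression and streptavidin fluorescence for reagent binding. Before sorting, galactose-induced (36–48 hours) yeast display cells were stained for 1 hour at 4 °C with 10% biotinylated, detergent-solubilized Sf9 membrane reagent.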

| Sequence | polyreactivity (PSR sort gate) |
| --- | --- |
| QVQLVESGGGLVQAGGSLRLSCAASGRNFKNYDMVWYRQAPGKERELVADISWRSGSTNYSDSVKGRFTISRDNAKNNVYLQMNSLKPEDTAVYYCASKRRISGWSQFTSYADFDYWGQGTQVTVSS | low polyreactivity |
| QVQLVESGGGLVQAGGSLRLSCAASGRNFNYNAMGWYRQAPGKERELVAVISWSGRTYYADSVKGRFTISRDNAKNTVYLLMNSLKPEDTAVYYCNKRSYRVLYGYWGQGTQVTVSS | high polyreactivity |
| QVQLVESGGGLVQAGGSLRLSCAASGRNFPYYAMGWYRQAPGKERELVAAISSSGGGTYYADSVKGRFTISRDNEKNTVYLQMNSLKPEDTAVYYCAAVYKVHSGLYDYWGQGTQVTLSS | high polyreactivity |
| QVQLVESGGGLVQAGGSLRLSCAASGRNFSFNTMVWYIQAPRKERELVAAITSSSARTYYADSVKGRFTISRDNAKNTVYLQMNSLKPEDTAVDYCDTRDWVGSVRMGYWGQGTQVTVSS | high polyreactivity |
| QVQLVESGGGLVQAGGSLRLSCAASGRNFSLYAMGWYRQAPGKERELVAAISRGGSTYYADSVKGRFTISRDNAKNTVYLQMNSLKPEDTAVYYCAAAPDYRAEYDYWGQGTQVTVSS | low polyreactivity |
| QVQLVESGGGLVQAGGSLRLSCAASGRNFTRNAMGWYRQAPGKEREFVAAISYRGGSTYYADSVKGRFTISRDNAKNTVYLQMNSLKPEDSAVYYCAKRIYPYYGELYWGQGTQVTVSS | high polyreactivity |
| QVQLVESGGGLVQAGGSLRLSCAASGRNFWVYAMGWYRQAPGKERELVAAISLSGGRTYYADSVKGRFTITRDKAKNNVNLQMNSLKPEDTAVYYCYAVYPKRGGGRIVDYWGQGTQVTVSS | high polyreactivity |
| QVQLVESGGGLVQAGGSLRLSCAASGRNFYVYAMGWYRQAPGKERELVATISRGGSTTYADSVKGRFTISRDNAKNTVYLQMNSLKPEDTAVYYCATELLGGRRTVAYYWGQGTQVTVSS | low polyreactivity |
| QVQLVESGGGLVQAGGSLRLSCAASGRNFYVYGLGWYRQAPGKERELVASITYRGGSTSYADSVKGRFTISRDNAKNTVYLQMNSLKPEDTAVYYCNADTYYRYDYWGQGTQVTVSS | high polyreactivity |
| QVQLVESGGGLVQAGGSLRLSCAASGRNFYYNAMGWYRQAPGKERELVAVISGRGGSTYYADSVKGRFTISRDNAKNTVYLQMNSLKPEDTAVYYCAAGYTRPWRFTYYYWGQGTQVTVSS | high polyreactivity |
| QVQLVESGGGLVQAGGSLRLSCAASGRNITANAMGWYRQAPGKEREFVAAINVSGGSTYYADSVKGRFTISRDNAKNTVYFQMNSLKPEDTAVYYCNADYYYYDIYWWQMDYWGLGTQVTVSS | low polyreactivity |
| QVQLVESGGGLVQAGGSLRLSCAASGRPFRGYAMGWYRQAPGKDRELVAAITRSGGSTYYADSVKGRFTISRDNAKNTVYVQMTSLKPEDTAVSYCNAVRHAQSRWPYGYWGQGTQVTVSS | high polyreactivity |
| QVQLVESGGGLVQAGGSLRLSCAASGRPFVGNVMGWYRQAPGKERELVDAITRTAGSTYYADSVKGRFTISRDNAKNTVYLEMNSLKPEDTAVDYCAVEGIYRWYDYSWYYTSTYDYWGQGTQVTVSS | low polyreactivity |
| QVQLVESGGGLVQAGGSLRLSCAASGRSFSGYAMGWYRQAPGKERDLVAAITSSGGRTYYADSVKGRFTISRDNAKNTVYVQMNSLKPEETAVYYSAAMRPGYRPQGLDYWGQGTQVTVSS | low polyreactivity |
| QVQLVESGGGLVQAGGSLRLSCAASGRSFYFNAMGWYRQAPGKERELVATISSSSTTYADSVKRRFTISRDNAKNTVYLQMTSLKPEDTAVYYCAARLGTYGEWGRTSYLRWYDYWGQGTQVTVSS | low polyreactivity |
| QVQLVESGGGLVQAGGSLRLSCAASGRSIAYYAMGWYRQAPGKERELVAAINWSGGRTYYADSVKGRFTLSRDNAKNTVYLQMNSLKPEETAVYYCNAVYNESRGSYQDDYWGQGTQVTVSS | high polyreactivity |
| QVQLVESGGGLVQAGGSLRLSCAASGRSLGWYAMGWYRKAPGKERELVAAISSGVRTNYADSVKGRFTISRDNAKNTVYLQMNSLKPEDTAVYYCAAATYNQDYSYDYWGQGTQVTVSS | low polyreactivity |
| QVQLVESGGGLVQAGGSLRLSCAASGRTCGRYAMVLYRQAPGKERELVAAISYSGGSTYYADSVKGRFTISRDNAKNTVYLQMNSLKPEDTAVYYCARYSIFRWTRDEYWGQGTQVTVSS | high polyreactivity |
| QVQLVESGGGLVQAGGSLRLSCAASGRTCWYKAMGWYRQAPGKERELVAPITSGGRTKYADSVKGRFTISRDNAKNTVYLQMNSLKPEDTAVYYCNTYNRRSGTLPKPYDYWGQGTQVTVSS | high polyreactivity |
| QVQLVESGGGLVQAGGSLRLSCAASGRTCYNTMGWYRQAPGKERELVAAISRGGITNYADSVKGRFTISRDSAKKTGYLQMNRLKPEDTAVYYCNAEPKRYYYYYKFDYWGQGTQVTVSS | high polyreactivity |
| QVQLVESGGGLVQAGGSLRLSCAASGRTDAYYAMGWYRQAPGKERELVAAITRGGSTYYADSVKGRFTISRDNAKNTVYLQMNSLKPEDTAVYYCAAATSPYQDDYWGQGTQVTVSS | low polyreactivity |
| QVQLVESGGGLVQAGGSLRLSCAASGRTFAAYTMGWYSQAPGKERELVAAIRRSGSSTYYADSVKGRFTISRDNAKNTVYLQMNSLKPEDTAVYYCARVGRFTGGGYWGQGTQVTVSS | high polyreactivity |

| Sequence | polyreactivity (PSR sort gate) |
| --- | --- |
| QVQLVESGGGLVQAGGSLRLSCAASGRTFAGNAMGWYRQAPGKERELVAAIRRTGGRTYYADSVKGRFTISRDNAKNTVYLQMNSLKPEETAVYYCNAVNKPYTREYGYDYWGQGTQVTGSS | high polyreactivity |
| QVQLVESGGGLVQAGGSLRLSCAASGRTFAGNAMGWYRQAPGKERELVAGISSGGSTNNADSVKGRFTSTRDNAKNTVYLQMNSLNPEDTAVYYCAKRYFRKGYPLFQYAYGYWGQGTQVTLSS | high polyreactivity |
| QVQLVESGGGLVQAGGSLRLSCAASGRTFAGYAMGWYRQAPGKERELVAAISTRGGSTYYADSVKGRFTISRDNAKNTVYLQMNSLKPEDTAVYYCAATKPKFYQFDYWGQGTQVTVSS | high polyreactivity |
| QVQLVESGGGLVQAGGSLRLSCAASGRTFAGYVMGWYRQAPGKERELVAAISTSGGSTRYADSVKGRFTISRDNAKNTVYLQMNSLKPEDTAVYYCAKLLYLGRWRFPAGYNHWGQGTQVTVSS | high polyreactivity |
| QVQLVESGGGLVQAGGSLRLSCAASGRTFAIDAMGWYRQAPGKEREFVAAISWSGGDTYYADSVKGRFTISRDNAKNTVYFQMNRLKPEDTAVYYSAGRDNDYEGRDLQDELDYWGQGTQVTVSS | low polyreactivity |
| QVQLVESGGGLVQAGGSLRLSCAASGRTFAINARGWYRQAPGKERELVAAITTSGGGTYYADSVKGRFTISRDNAKNTVYLQMNSLKPEDTAVYYCAAGTSYYTYRFYAWDYDYWGQGTQVTVSS | low polyreactivity |
| QVQLVESGGGLVQAGGSLRLSCAASGRTFAIYAMGWYRQAPGKERELVAGITIRGGRTYYADSVKGRFTISRYIAKNTVYLQMNSLKPEDTAVYYCNARGWYEYGWGQGTQVTVSS | high polyreactivity |
| QVQLVESGGGLVQAGGSLRLSCAASGRTFAKYAMGWSRPAPGKERELVAAIRWSGGSTYYADSVKGRFTISRDNAKNTVYLQMTSLKPEDTAVYYCATERFVLGLGYDYWGQGTQVTVSS | high polyreactivity |
| QVQLVESGGGLVQAGGSLRLSCAASGRTFAKYAMGWYRQAPGKERELVAAIRWSGGSTYYADSVKGRFTISRDNAKNTVYLQMNSLKPEDTAVYYCAARPALWGRYRGYDYWGQGTQVTVSS | high polyreactivity |
| QVQLVESGGGLVQAGGSLRLSCAASGRTFAKYAMGWYRQAPGKERELVAAISDSGGSTYYADSVKGRFTISRDNAKNTVYLQMNSLKPEDTAVYYCAADGRYTYYWGQGTQVTVSS | high polyreactivity |
| QVQLVESGGGLVQAGGSLRLSCAASGRTFAKYAMGWYRQAPGKERELVASISGRGTNTYYADSVKGRFTISRDNAKNTVYLQMNSLKPEDTAVYYCAATYVYPYRDSHYYYWGQGTQVTVSS | high polyreactivity |
| QVQLVESGGGLVQAGGSLRLSCAASGRTFAKYGMGWYIQAPGKERELVAAIDYSGGSTYYADSVKGRFTISRDNAKNTVYLQMNSLKPEDTAVYYCAADYFWLYYSEYGYWGQGTQVTVSS | low polyreactivity |
| QVQLVESGGGLVQAGGSLRLSCAASGRTFALNAMGWYRQAPGKERELVAAISWSSGRTYYADSVKGRFTISRDNAKNTVYLQMNSLKPEDTAVYYCAALVAHKGDYWGQGTQVTVSS | high polyreactivity |
| QVQLVESGGGLVQAGGSLRLSCAASGRTFALYAMGWYRHAPGKERELVASISWRGGSTYYADSVKGRFTISRDNAKNTVYLQMNSLKPEDTAVYYCAADTWSYGPLNYRLEYWGQGTQVTVSS | low polyreactivity |
| QVQLVESGGGLVQAGGSLRLSCAASGRTFALYAMGWYRQAPGKERELVATITFIGDSTYYADSVKGRFTISRDNAKNTVYLQMNCLKPVDTAVYYCNATYGPYYPGIVTYIWFDHWGQGSQVTVSS | low polyreactivity |
| QVQLVESGGGLVQAGGSLRLSCAASGRTFANNAMGWYRQAPGKERELVARISNSGSTNYADSVKGRFTISRDNAKNTVYLQMNSLKPEDTAVYYCAARIVRLYSRYDYWGQGTQVTVSS | low polyreactivity |
| QVQLVESGGGLVQAGGSLRLSCAASGRTFANYAMGWYRQAPGKERELVAAITSGGRTYYADSVKGRFTISRDNAKNTVYLQMNSLKPEDTAVYYCAADYTYDYQNDYWGQGTQVTVSS | high polyreactivity |
| QVQLVESGGGLVQAGGSLRLSCAASGRTFAPNAMRWSRQAPGKERELVARITWSGTDTYYADSVKGRFTISRDNAKNTVYLQMNSLKPEDTAVYYCAADARYSRRYYYWGQGTQVTVSS | low polyreactivity |
| QVQLVESGGGLVQAGGSLRLSCAASGRTFAPNTMGWYRQAPGKERELVATISSGGSTNYADSVKGRFTISRDNAKNTVYLQMNSLKPEDTAVYYCAARYRIVYRSHWGFTSYDYWGQGTQVTVSS | low polyreactivity |
| QVQLVESGGGLVQAGGSLRLSCAASGRTFAPYAMGWYRQAPGKERELVAAITSGGSTYYADSVKGRFTISRDNAKNTVYLQMNSLKPEDTAVYYCAAKFVGTTVSEYGYWGQGTEVTVSS | low polyreactivity |
| QVQLVESGGGLVQAGGSLRLSCAASGRTFAPYAMGWYRQARGQERELVATITRTGRTNYADSVKGRFTISRDNAKNTVYLQMNSLKPEDTAVYYCAAYTYYGFYYWGQGTQVTVSS | high polyreactivity |
